Assay results taken from PMC3973293, “A tRNA splicing operon: Archease endows RtcB with dual GTP/ATP cofactor specificity and accelerates RNA ligation” (Nucleic Acids Research, 2014).

How the values were obtained:
[1] = substrate: Nc1nc2c(ncn2[C@@H]2O[C@H](COP(=O)(O)OP(=O)(O)OP(=O)(O)O)[C@@H](O)[C@H]2O)c(=O)[nH]1; assay: single-turnover RNA ligation, FAM-RNA gel assay; assay type: biochemical, Pyrococcus horikoshii; details: apparent Km, RtcB 5 uM, MnCl2 0.25 mM, NaCl 300 mM, Bis-Tris pH 7.0, 70 °C, 10-nt RNA substrates 1.0 uM each, varied: cofactor
[2] = substrate: Nc1ncnc2c1ncn2[C@@H]1O[C@H](COP(=O)(O)OP(=O)(O)OP(=O)(O)O)[C@@H](O)[C@H]1O; assay: single-turnover RNA ligation, FAM-RNA gel assay; assay type: biochemical, Pyrococcus horikoshii; details: apparent Km, Archease 800 nM, RtcB 5 uM, MnCl2 0.25 mM, NaCl 300 mM, Bis-Tris pH 7.0, 70 °C, 10-nt RNA substrates 1.0 uM each, varied: cofactor
Description: single-turnover RNA ligation, FAM-RNA gel assay on RtcB·Archease | the ATP KM* value for K480A RtcB was nearly identical to the ATP KM* value

[3] = substrate: Nc1nc2c(ncn2[C@H]2C[C@H](O)[C@@H](COP(=O)(O)OP(=O)(O)OP(=O)(O)O)O2)c(=O)[nH]1; assay: single-turnover RNA ligation, FAM-RNA gel assay; assay type: biochemical, Pyrococcus horikoshii; details: apparent Km, Archease 100 nM, RtcB 5 uM, MnCl2 0.25 mM, NaCl 300 mM, Bis-Tris pH 7.0, 70 °C, 10-nt RNA substrates 1.0 uM each, varied: cofactor
[4] = substrate: Nc1ncnc2c1ncn2[C@@H]1O[C@H](COP(=O)(O)OP(=O)(O)OP(=O)(O)O)[C@@H](O)[C@H]1O; assay: single-turnover RNA ligation, FAM-RNA gel assay; assay type: biochemical, Pyrococcus horikoshii; details: apparent Km, Archease 800 nM, RtcB 5 uM, MnCl2 0.25 mM, NaCl 300 mM, Bis-Tris pH 7.0, 70 °C, 10-nt RNA substrates 1.0 uM each, varied: cofactor; remark: listed apart in the source
[5] = substrate: O=P(O)(O)OP(=O)(O)OP(=O)(O)OC[C@H]1O[C@@H](n2cnc3c(O)ncnc32)[C@H](O)[C@@H]1O; assay: single-turnover RNA ligation, FAM-RNA gel assay; assay type: biochemical, Pyrococcus horikoshii; details: apparent Km, Archease 100 nM, RtcB 5 uM, MnCl2 0.25 mM, NaCl 300 mM, Bis-Tris pH 7.0, 70 °C, 10-nt RNA substrates 1.0 uM each, varied: cofactor
[6] = target: T1, Native Pyrococcus horikoshii RtcB (Pyrococcus horikoshii) (UniProt O59245)
T1 sequence: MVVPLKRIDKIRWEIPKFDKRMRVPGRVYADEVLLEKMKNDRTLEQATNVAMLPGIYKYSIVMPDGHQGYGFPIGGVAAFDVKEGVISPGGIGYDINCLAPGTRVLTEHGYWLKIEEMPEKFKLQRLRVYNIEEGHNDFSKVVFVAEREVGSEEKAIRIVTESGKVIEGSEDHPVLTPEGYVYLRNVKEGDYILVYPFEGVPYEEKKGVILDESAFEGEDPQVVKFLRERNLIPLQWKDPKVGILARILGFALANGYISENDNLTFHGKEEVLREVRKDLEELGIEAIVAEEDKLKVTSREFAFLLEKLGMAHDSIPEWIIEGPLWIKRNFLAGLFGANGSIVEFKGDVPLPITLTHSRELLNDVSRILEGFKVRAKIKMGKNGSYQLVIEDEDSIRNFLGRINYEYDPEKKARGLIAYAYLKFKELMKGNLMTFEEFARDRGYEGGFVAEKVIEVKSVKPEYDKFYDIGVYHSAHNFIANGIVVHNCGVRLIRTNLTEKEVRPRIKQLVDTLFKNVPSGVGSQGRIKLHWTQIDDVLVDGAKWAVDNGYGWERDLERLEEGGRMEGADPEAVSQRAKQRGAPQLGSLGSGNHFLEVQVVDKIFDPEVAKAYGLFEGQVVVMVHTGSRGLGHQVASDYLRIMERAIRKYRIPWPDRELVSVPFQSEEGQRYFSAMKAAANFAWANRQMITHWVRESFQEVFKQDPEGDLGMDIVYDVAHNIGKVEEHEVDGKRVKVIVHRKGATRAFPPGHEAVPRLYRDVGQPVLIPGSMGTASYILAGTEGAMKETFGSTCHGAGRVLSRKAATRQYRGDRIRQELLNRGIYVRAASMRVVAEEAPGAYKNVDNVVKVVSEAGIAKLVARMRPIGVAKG

B1: P. horikoshii RtcB (Pyrococcus horikoshii OT3) (protein)
chain 1: MVVPLKRIDKIRWEIPKFDKRMRVPGRVYADEVLLEKMKNDRTLEQATNVAMLPGIYKYSIVMPDGHQGYGFPIGGVAAFDVKEGVISPGGIGYDIN
chain 2: CGVRLIRTNLTEKEVRPRIKQLVDTLFKNVPSGVGSQGRIKLHWTQIDDVLVDGAKWAVDNGYGWERDLERLEEGGRMEGADPEAVSQRAKQRGAPQLGSLGSGNHFLEVQVVDKIFDPEVAKAYGLFEGQVVVMVHTGSRGLGHQVASDYLRIMERAIRKYRIPWPDRELVSVPFQSEEGQRYFSAMKAAANFAWANRQMITHWVRESFQEVFKQDPEGDLGMDIVYDVAHNIGKVEEHEVDGKRVKVIVHRKGATRAFPPGHEAVPRLYRDVGQPVLIPGSMGTASYILAGTEGAMKETFGSTCHGAGRVLSRKAATRQYRGDRIRQELLNRGIYVRAASMRVVAEEAPGAYKNVDNVVKVVSEAGIAKLVARMRPIGVAKG
notes: intein-free mature ligase
**Q.** Which Km [1] does the source give for B1 here?
**A.** Its Km is 2.4 ± 0.2 µM.

B2: RtcB·Archease (Pyrococcus horikoshii OT3; K870A) (protein)
chain 1: MVVPLKRIDKIRWEIPKFDKRMRVPGRVYADEVLLEKMKNDRTLEQATNVAMLPGIYKYSIVMPDGHQGYGFPIGGVAAFDVKEGVISPGGIGYDIN
chain 2: CGVRLIRTNLTEKEVRPRIKQLVDTLFKNVPSGVGSQGRIKLHWTQIDDVLVDGAKWAVDNGYGWERDLERLEEGGRMEGADPEAVSQRAKQRGAPQLGSLGSGNHFLEVQVVDKIFDPEVAKAYGLFEGQVVVMVHTGSRGLGHQVASDYLRIMERAIRKYRIPWPDRELVSVPFQSEEGQRYFSAMKAAANFAWANRQMITHWVRESFQEVFKQDPEGDLGMDIVYDVAHNIGKVEEHEVDGKRVKVIVHRKGATRAFPPGHEAVPRLYRDVGQPVLIPGSMGTASYILAGTEGAMKETFGSTCHGAGRVLSRKAATRQYRGDRIRQELLNRGIYVRAASMRVVAEEAPGAYKNVDNVVKVVSEAGIAKLVARMRPIGVAAG
notes: Archease untagged as described, codon-optimised, Leu inserted after ATG, E. coli BL21, 16 kDa, mostly monomer; with Protein archease
**Q.** B2 was tested. Which Km [2] did it give?
**A.** The Km was 3.0 ± 1.0 µM.

B3: RtcB·Archease (Pyrococcus horikoshii OT3) (protein)
chain 1: MVVPLKRIDKIRWEIPKFDKRMRVPGRVYADEVLLEKMKNDRTLEQATNVAMLPGIYKYSIVMPDGHQGYGFPIGGVAAFDVKEGVISPGGIGYDIN
chain 2: CGVRLIRTNLTEKEVRPRIKQLVDTLFKNVPSGVGSQGRIKLHWTQIDDVLVDGAKWAVDNGYGWERDLERLEEGGRMEGADPEAVSQRAKQRGAPQLGSLGSGNHFLEVQVVDKIFDPEVAKAYGLFEGQVVVMVHTGSRGLGHQVASDYLRIMERAIRKYRIPWPDRELVSVPFQSEEGQRYFSAMKAAANFAWANRQMITHWVRESFQEVFKQDPEGDLGMDIVYDVAHNIGKVEEHEVDGKRVKVIVHRKGATRAFPPGHEAVPRLYRDVGQPVLIPGSMGTASYILAGTEGAMKETFGSTCHGAGRVLSRKAATRQYRGDRIRQELLNRGIYVRAASMRVVAEEAPGAYKNVDNVVKVVSEAGIAKLVARMRPIGVAKG
notes: as for B2
**Q.** B3 was tested. Which Km ([1]; Archease 100 nM) did it give?
**A.** The Km was 1.5 ± 0.3 µM.

**Q.** What about the Km [3] of the same binder?
**A.** Its Km is 1.8 ± 0.1 µM.

**Q.** And the Km [4]?
**A.** Its Km is 3.4 ± 1.1 µM.

**Q.** What about the Km [5] of the same binder?
**A.** The Km was 1.9 ± 0.4 µM.

B4: Pyrococcus horikoshii Archease (natural protein)
chain: MLKKWEHYEHTADIGIRGYGDSLEEAFEAVAIALFDVMVNVNKVEKKEVREIEVEAEDLEALLYSFLEELLVIHDIEGLVFRDFEVKIERVNGKYRLRAKAYGEKLDLKKHEPKEEVKAITYHDMKIERLPNGKWMAQLVPDI
**Q.** Which RNA ligation product formed by 5 μM RtcB with Archease titrated in (activation levels off at 100 nM Archease; 92 nM product without Archease), 70°C, 30 min [6] does the source give for B4 here?
**A.** The RNA ligation product formed by 5 μM RtcB with Archease titrated in (activation levels off at 100 nM Archease; 92 nM product without Archease), 70°C, 30 min was 316 nM.
